From article PMC4045939 (2014)

Biological target: T1, RSV M2 protein peptide on H-2Kd (mouse)
T1 peptide: SYIGSINNI
Experiment: in vitro CTL assay; CB6F1 splenocyte targets loaded with graded M2 peptide, E:T ratio of 50; EC50 from a 4-parameter non-linear fit; full-length, on cells

B1: TRBV13-2 (TCR)
alpha TRAV7-3*01 CDR3: CAVNSGYNKLTF
beta TRBV13-2*01 CDR3: CASGAGTGYAEQFF
EC50 of peptide: 0.243 nM

B2: TRBV13-1 (TCR)
alpha TRAV12-2*01 CDR3: CALRNNNNAPRF
beta TRBV13-1*02 CDR3: CASSDGGKEVFF
EC50 of peptide: 0.0571 nM
